{
  "source": "patent US20130303441A1",
  "about": "(YEDA RESEARCH AND DEVELOPMENT, published 2013)",
  "biological_target": "wild-type (WT) GSK-3β (human, UniProt P49841 1-420, limits assumed)",
  "sequence (P49841 other isoform, or with tags, fused parts or gaps limits assumed)": "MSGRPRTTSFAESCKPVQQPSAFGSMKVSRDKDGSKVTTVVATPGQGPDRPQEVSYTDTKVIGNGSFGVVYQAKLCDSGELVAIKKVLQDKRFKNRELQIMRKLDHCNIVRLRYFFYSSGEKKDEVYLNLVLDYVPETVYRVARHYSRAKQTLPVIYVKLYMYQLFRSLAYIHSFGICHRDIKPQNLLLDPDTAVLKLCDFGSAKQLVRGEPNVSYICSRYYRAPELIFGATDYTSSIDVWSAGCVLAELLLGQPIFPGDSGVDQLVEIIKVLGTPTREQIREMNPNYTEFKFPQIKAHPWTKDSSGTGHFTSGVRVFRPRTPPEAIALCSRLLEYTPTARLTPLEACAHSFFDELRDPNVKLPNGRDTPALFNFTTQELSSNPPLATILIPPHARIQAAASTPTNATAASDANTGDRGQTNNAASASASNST",
  "assay": "cell-based or functional assay",
  "note": "Square brackets hold non-standard residues; d marks the D form. Ends that are not written are not given here. pS = N[C@@H](COP(=O)(O)O)C(=O)O",
  "data": [
    {"binder": "KEAPPAPPQ[pS]PF", "note": "[L803F, Lys-Glu-Ala-Pro-Pro-Ala-Pro-Pro-Gln-phosphorylated Ser-Pro-Phe]", "values": [
      {"measurement": "IC50, in vitro kinase assay", "result": "~150", "unit": "µM"},
      {"measurement": "in vitro kinase assays with GSK-3β in the presence of L803 or L803F (200 µM each); inhibition relative to L803", "result": "~50 % relatively to L803"}
    ]}
  ]
}
